From the supplement of paper PMC10567573

B1: CDC25B (parent)
chain: KSPIAPCSLDKRVILIFHCEFSSE
B2: FAM189A2 (parent)
chain: PRCDLVDLGEGKICFCCEEFQPAK

Variants of: B1
Assay: protein stability index of a GFP-peptide fusion (GPS, HEK-293T) (PSI 1-6); higher = more stable
Settings: c terminus: a fixed tail appended
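Also: lentivirally expressed fusions sorted by FACS into six bins by GFP to DsRed ratio, PSI derived from sequencing read proportions per bin multiplied by bin number.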

In order of falling protein stability index:
1. S22W  4.72
2. E20C  4.34
3. F17V  4.17
4. C19S  4.17
5. C19Q  4.16
6. S23A  4.14
7. S23F  4.12
8. C19T  3.92
9. E20S  3.75
10. E20N  3.58
11. H18F  3.53
12. L15I  3.49
13. S22A  3.41
14. S22D  3.4
15. E20P  3.36
16. H18A  3.34
17. H18S  3.34
18. S23W  3.34
19. H18C  3.24
20. F21M  3.21
21. F21T  3.13
22. F17D  3.13
23. E24K  3.12
24. H18D  3.1
25. C19A  3.06
26. I16P  3.02
27. E24V  2.98
28. F21C  2.97
29. C19R  2.96
30. S23V  2.95
31. F21G  2.94
32. I16C  2.93
33. I16D  2.92
34. I16Y  2.91
35. F21H  2.91
36. S23T  2.89
37. L15M  2.88
38. S22T  2.88
39. H18G  2.81
40. E20G  2.81
41. S23Q  2.79
42. E24D  2.77
43. C19I  2.77
44. F17E  2.76
45. C19P  2.75
46. E20V  2.73
47. F21S  2.69
48. L15Y  2.66
49. F21P  2.66
50. S22M  2.66
51. S23I  2.64
52. E20D  2.58
53. E20I  2.55
54. I16N  2.54
55. F17N  2.54
56. F21Q  2.53
57. E20M  2.51
58. I16R  2.5
59. H18Y  2.5
60. S22Q  2.5
61. F17I  2.47
62. H18K  2.45
63. H18P  2.44
64. F17Q  2.44
65. E24T  2.44
66. E24Y  2.39
67. E24Q  2.38
68. F17P  2.36
69. C19D  2.34
70. F17K  2.33
71. F21A  2.32
72. C19W  2.31
73. S22Y  2.31
74. L15P  2.28
75. H18N  2.26
76. I16M  2.25
77. S23N  2.25
78. L15N  2.21
79. S22F  2.21
80. E20H  2.2
81. F17C  2.19
82. I16T  2.18
83. F21R  2.15
84. S23M  2.11
85. F21I  2.1
86. S22P  2.1
87. E24G  2.09
88. S22H  2.09
89. C19Y  2.08
90. S22K  2.08
91. E20F  2.05
92. S23L  2.04
93. C19K  2.03
94. I16S  2.01
95. E24L  1.98
96. F17A  1.92
97. C19H  1.89
98. H18M  1.88
99. F21N  1.88
100. H18I  1.86
101. L15S  1.86
102. C19E  1.85
103. L15Q  1.84
104. E20A  1.82
105. L15T  1.8
106. F17S  1.8
107. F17T  1.8
108. S23E  1.73
109. L15R  1.71
110. F17R  1.69
111. I16H  1.68
112. F17M  1.66
113. E20K  1.64
114. F17H  1.64
115. I16Q  1.52
116. I16A  1.52
117. F21D  1.51
118. F21K  1.5
119. S22C  1.43
120. L15K  1.42
121. I16G  1.4
122. I16K  1.39
123. F17G  1.39
124. I16L  1.38
125. S22I  1.34
126. C19N  1.32
127. S23C  1.23
128. I16E  1.07
129. I16V  1.06
130. I16W  1.05
131. L15H  1.05

Variants of: B2
Assay: as above
Settings: c terminus: a fixed tail appended

In order of rising protein stability index:
1. D4W  1.16
2. G11F  1.51
3. D4I  1.57
4. R2F  1.65
5. D4L  1.67
6. D7I  1.71
7. G9F  1.77
8. P1I  1.78
9. E10W  1.85
10. P1F  1.85
11. D4Y  1.86
12. G11I  1.86
13. P1M  1.86
14. P1V  1.87
15. D7V  1.89
16. C3Y  1.91
17. P1Y  1.91
18. D7M  1.93
19. G11L  1.95
20. R2W  1.98
21. E10M  2.01
22. C3A  2.01
23. D7F  2.03
24. G9M  2.04
25. C3I  2.05
26. E10L  2.08
27. E10I  2.08
28. G9W  2.08
29. D4F  2.11
30. D4A  2.11
31. D7Y  2.12
32. G9R  2.14
33. L5W  2.16
34. R2V  2.17
35. D7Q  2.2
36. D7S  2.21
37. L8Y  2.21
38. G11M  2.21
39. G9L  2.21
40. C3F  2.22
41. D7W  2.24
42. P1A  2.24
43. G9I  2.24
44. C3N  2.25
45. R2Y  2.25
46. D4G  2.26
47. E10V  2.26
48. V6W  2.28
49. G9N  2.28
50. E10Y  2.29
51. D7L  2.3
52. C3M  2.3
53. G9Q  2.33
54. E10F  2.35
55. E10S  2.36
56. G11K  2.4
57. R2M  2.41
58. C3S  2.43
59. P1R  2.43
60. P1W  2.43
61. C3T  2.44
62. G11C  2.45
63. D4M  2.46
64. R2K  2.46
65. V6I  2.49
66. D4V  2.5
67. G11P  2.52
68. G9V  2.52
69. E10R  2.54
70. E10A  2.56
71. R2H  2.58
72. L5F  2.6
73. D7R  2.6
74. V6L  2.6
75. D7A  2.61
76. E10C  2.63
77. G11A  2.63
78. C3R  2.63
79. P1T  2.63
80. E10N  2.65
81. V6M  2.65
82. P1D  2.67
83. C3W  2.69
84. D4S  2.7
85. D4T  2.7
86. V6F  2.71
87. E10Q  2.73
88. V6Y  2.73
89. D4C  2.74
90. E10T  2.75
91. D7N  2.76
92. G9S  2.77
93. D7T  2.79
94. R2L  2.8
95. G11H  2.81
96. E10K  2.82
97. R2A  2.83
98. R2I  2.83
99. P1C  2.83
100. G9T  2.83
101. P1L  2.84
102. D4H  2.85
103. L5Y  2.85
104. L5M  2.86
105. G9E  2.86
106. E10H  2.88
107. E10P  2.88
108. C3P  2.89
109. R2N  2.9
110. P1Q  2.9
111. G9A  2.9
112. G9C  2.91
113. D7C  2.92
114. R2T  2.94
115. G9Y  2.94
116. G9K  2.96
117. L8V  2.97
118. C3L  2.97
119. L5R  2.98
120. V6T  2.98
121. G11Q  2.98
122. C3G  2.98
123. G9P  2.99
124. E10D  3
125. E10G  3
126. P1S  3
127. L5V  3.02
128. L5S  3.03
129. V6P  3.03
130. D7E  3.05
131. R2S  3.06
132. G9H  3.06
133. C3K  3.07
134. L5I  3.13
135. L8I  3.13
136. R2Q  3.13
137. P1K  3.14
138. P1G  3.14
139. P1E  3.16
140. D7P  3.17
141. R2G  3.18
142. G9D  3.18
143. V6S  3.21
144. L8W  3.23
145. D7H  3.25
146. C3Q  3.26
147. D4E  3.27
148. D7G  3.28
149. G11D  3.28
150. C3H  3.31
151. G11N  3.33
152. C3V  3.33
153. V6D  3.34
154. R2E  3.35
155. D4P  3.39
156. L5P  3.39
157. P1N  3.39
158. V6R  3.4
159. L8K  3.41
160. D4K  3.44
161. D4Q  3.44
162. G11E  3.44
163. V6G  3.46
164. L8F  3.46
165. L5T  3.47
166. V6E  3.48
167. V6A  3.49
168. L5N  3.52
169. C3D  3.53
170. L8A  3.54
171. C3E  3.55
172. R2C  3.55
173. D4R  3.56
174. L8P  3.58
175. L8E  3.65
176. L8D  3.67
177. V6N  3.71
178. R2D  3.72
179. L5Q  3.73
180. L8N  3.73
181. L8M  3.74
182. D7K  3.76
183. V6K  3.78
184. R2P  3.8
185. L5E  3.84
186. L8C  3.87
187. L8R  3.91
188. V6Q  3.92
189. L8T  3.92
190. L5D  3.95
191. L8S  3.97
192. L5A  3.98
193. L8H  3.98
194. P1H  4.03
195. V6C  4.15
196. L5K  4.28
197. L8Q  4.32
198. L5G  4.44
199. V6H  4.45
200. L8G  4.48
201. D4N  4.71
202. L5H  4.84
203. L5C  4.89
